Consider 40 sequences from the supplement of paper PMC9170038.

The subject of data set [1] is MS2 coat protein. Kind of data set: apparent KD of MS2 coat protein, switch ON state; designed switch direction (-1 OFF switch, 1 ON switch): -1; higher = weaker reporter binding. The conditions noted are these: FMN input: 0 or 200 uM; Eterna round: R93 (includes R88 designs). The method, boiled down: (§1)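 The designed RNA switches were transcribed on-chip from Illumina sequencing clusters. In 100 mM Tris-HCl pH 7.5, 80 mM KCl and 4 mM MgCl2, without or with constant ligand, they were titrated with SNAP-549-labelled MS2 coat protein from 0.7 or 1.5 nM to 3 µM in twofold steps. Apparent KD is the per-design median of normalised cluster binding-curve fits.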

Data set [2] deals with MS2 coat protein. Kind of data set: apparent KD of MS2 coat protein, switch OFF state (with FMN for OFF switches, without FMN for ON switches); designed switch direction (-1 OFF switch, 1 ON switch): -1; higher = weaker reporter binding. The conditions noted are these: FMN input: 0 or 200 uM; Eterna round: R93 (includes R88 designs). The method, boiled down: as §1

With “AAAAAGGCAGGAUAUGCAUACUCACGGAAAAAAAGGUUGGGACAUGAGGAUCACCCAUGUAGAAGGGCCAAAAA [Dora Explored 14 - Jieux - Exclusion 2]”, the “apparent KD of MS2 coat protein” value in data set [1] was 0.0296 µM; in data set [2], 0.0238 µM.

On to “AAUAAACAUGAGGAUCACCCAUGUAAGGAUAUCGAAAAAAAAAUAAACAAAAAAAAAACGAGAAGGUACAAAAA [Exclusion 1 design 2]”, for which the “apparent KD of MS2 coat protein” value is 0.0241 µM in data set [1] and 0.027 µM in data set [2].

On to “UAGAACCUAGGAUAUACUUGGAAAAAUAAUGCAAAGAUAUAACAUGAGGAUCACCCAUGUAGAAGGAGGAGUAA [JR_Exc002_Sub020]”, for which the results for the “apparent KD of MS2 coat protein” value in data set [1] and in data set [2] were 0.0485 µM and 0.0359 µM, respectively.

Consider “AGUUGGCGAGGAUAUACAUGAGGAUCACCCAUGUGAAAUCGAGAAAAAAUAGGGAAAAGUAGAAGGCGCUGACA [Ruby 62]”, for which the entries for the “apparent KD of MS2 coat protein” value in data set [1] and in data set [2] were 0.0225 µM and 0.0906 µM, respectively.

For “ACGUAGAGAGGAUAUACGAACAUGUCAAAAGACGUGAAGGGACAUGAGGAUCACCCAUGUAGAAGGCUCUACGA [Mat - Exclusion 2 - JL mod - D8]”, the “apparent KD of MS2 coat protein” value in data set [1] turned out to be 0.0548 µM; in data set [2], 0.172 µM.

Take “GUGUACAGAGGAUAUAUAUGAGCUAGGAAACUAGCAACUUCACAUGAGGAUCACCCAUGUAGAAGGCUGUACAC [Ex2: 720]”: the “apparent KD of MS2 coat protein” value was 0.0141 µM in data set [1] and 0.0143 µM in data set [2].

On to “AAGAAACAUGAGGAUCACCCAUGUGAGGAUAUCCAAAAGAAAAGAAAAGAAAGAAGAAGGAGAAGGCACAAAGG [Nikare]”, for which the “apparent KD of MS2 coat protein” value in data set [1] turned out to be 0.0885 µM; in data set [2] it was 0.159 µM.

For “AAGAAGUCAGGAUAUGCAAAAGAAAAGAAAAGAAAAGAAAAGCAGAAGGGACAUGAGGAUCACCCAUGUAAGAA [Metsuire Cambyses]”, the “apparent KD of MS2 coat protein” value in data set [1] is 0.0327 µM; in data set [2], 0.0401 µM.

In the case of “AGAAAACAUGAGGAUCACCCAUGUCAGGAUAUACAAAAUAAAAUAAAAAUAAAAUAAAGUAGAAGGGACAAAGA [Mat - Same state - Mayanna Mod - D109]”, the results for the “apparent KD of MS2 coat protein” value in data set [1] and in data set [2] were 0.0335 µM and 0.0427 µM, respectively.

Consider “AACAGUACAGGAUAUACAUGAGGAUCACCCAUGUAGAGAAAAUAAAACAAAAAUAAAAGUAGAAGGGUACUGGA [Ruby 47]”, for which the results for the “apparent KD of MS2 coat protein” value in data set [1] and in data set [2] were 0.0266 µM and 0.0264 µM, respectively.

As for “AAGAAGCAAGGAUAUACAUGAGGAUCACCCAUGUAAAAGAAAGAAAGGGAAAAGAAAAGUAGAAGGUGCAAGAA [Titkheperure Pasebakhenniut II]”, the entries for the “apparent KD of MS2 coat protein” value in data set [1] and in data set [2] were 0.0452 µM and 0.057 µM, respectively.

With “AGUUGGCGAGGAUAUACAUGAGGAUCACCCAUGUGAGAGAAAAAAGUGAGAAAGAAAAGUAGAAGGCGCGGACA [Ruby 1]”, the “apparent KD of MS2 coat protein” value in data set [1] was 0.0473 µM; in data set [2], 0.0704 µM.

“AGUUGGCGAGGAUAUACAUGAGGAUCACCCAUGUGAAAUAAUGAAAAAGUAGGGAAAAGUAGAAGGCGCUGACA [73%, Moding Norbert Elias, 20]”: the “apparent KD of MS2 coat protein” value in data set [1] stood at 0.0377 µM; in data set [2] it was 0.143 µM.

As to “GAGGCUGAAGGAUAUACAAGGGCCUCACCGCCAAGGCGGAAACAUGAGGAUCACCCAUGUAGAAGGUCAAUAAA [Usrisore]”, the “apparent KD of MS2 coat protein” value in data set [1] is 0.14 µM; in data set [2], 0.103 µM.

For the sequence “GGUUGGCGAGGAUAUACAUGAGGAUCACCCAUGUGAGAGAAAAAAGUGAGAACGAAAAGUAGAAGGCGCUGACG [salish99-ex3-25]”, the results for the “apparent KD of MS2 coat protein” value in data set [1] and in data set [2] were 0.0235 µM and 1.34 µM, respectively.

As to “GAAAAACAUGAGGAUCACCCAUGUAAGGAUAUGCUAAAAAACACGGAAAACGUGAAUAGCAGAAGGUACAAAAA [Mat - Exclusion 1 - Eli mod - D86]”, the “apparent KD of MS2 coat protein” value worked out at 0.0206 µM in data set [1] and 0.0236 µM in data set [2].

As to “CUCUUGUGAGGAUAUCCAUGAAAUGAAGUGAAAGAAAAGAAGGAGAAGGCACAUGAGGAUCACCCAUGUUAGAA [EteRNA is fun!]”, the “apparent KD of MS2 coat protein” value came to 0.0496 µM in data set [1] and 0.0243 µM in data set [2].

Regarding “AAAAAGAGAGGAUAUGCAGGAGGUAAGGUCGAAAAAAAAAAACAUGAGGAUCACCCAUGUAGAAGGUUUAAAAA [Ecls2-VII]”, the “apparent KD of MS2 coat protein” value in data set [1] stood at 0.0236 µM; in data set [2] it was 0.0239 µM.

For “CUCUUGUCAGGAUAUCUAAGAAAAGAAGAGAAAGAAAAGAAAGAGAAGGGACAUGAGGAUCACCCAUGUAAGAA [EteRNA is fun!]”, the “apparent KD of MS2 coat protein” value was 0.0593 µM in data set [1] and 0.0324 µM in data set [2].

Turning to “AAACCACAUGAGGAUCACCCAUGUCAGGAUAUGAACGAAAUAAAAUAAAAAUAAAAGUUCAGAAGGGACAAAAA [Mat - Exclusion 1 - Eli mod - D16]”, the “apparent KD of MS2 coat protein” value in data set [1] is 0.0374 µM; in data set [2], 0.0487 µM.

As for “AACAUGUGAGGAUAUUAAAGAAAAGAAAAGAAAGAAAAGAAUAAGAAGGCACAUGAGGAUCACCCAUGUAAGAA [EteRNA is fun!]”, the entries for the “apparent KD of MS2 coat protein” value in data set [1] and in data set [2] were 0.0325 µM and 0.0269 µM, respectively.

For “AAAAAGUCAGGAUAUUCGGAUAGGAAAACGAAAACCUAUCCGAAGAAGGGACAUGAGGAUCACCCAUGUGGAAA [67% Ecls-II - Late G segment 1]”, the “apparent KD of MS2 coat protein” value in data set [1] turned out to be 0.0887 µM; in data set [2], 0.17 µM.

As for “AAAGGACGAGGAUAUACAUGAGGAUCACCCAUGUGUAAAACGUAAUAAAAGAACUUAUGUAGAAGGCGUCCAAA [Mat - Exclusion 3 - Eli mod - D96]”, the entries for the “apparent KD of MS2 coat protein” value in data set [1] and in data set [2] were 0.0647 µM and 0.214 µM, respectively.

With “CAAAACAGAGGAUAUACAUGAGGAUCACCCAUGUAAAAAUGUAGAAGGCUGAAACAAACAAGAAGGAAACAAAA [Meechl Ex3 R2 m3]”, the “apparent KD of MS2 coat protein” value is 0.0237 µM in data set [1] and 0.0301 µM in data set [2].

“AAUCCACAUGAGGAUCACCCAUGUGAGGAUAUCGUGCAGAAAAAAAAAAAAAACUGCACGAGAAGGCACAUGGA”: the figures for the “apparent KD of MS2 coat protein” value in data set [1] and in data set [2] were 0.0351 µM and 0.0202 µM, respectively.

“AGCUAGUCAGGAUAUACGAGAAAGAAAGAAGAAGUGAAGGGACAUGAGGAUCACCCAUGUAGAAGGGACUAGCA [Diamond 27]”: the “apparent KD of MS2 coat protein” value came to 0.0519 µM in data set [1] and 0.16 µM in data set [2].

As to “AAGCUGGUAGGAUAUACUAGGGCGACUAAUGCGCCGAUAGGACAUGAGGAUCACCCAUGUAGAAGGGCCAGAAA [JR_Exc002_Sub406]”, the “apparent KD of MS2 coat protein” value in data set [1] was determined as 0.187 µM; in data set [2], 0.07 µM.

Take “AAAAAACAUGAGGAUCACCCAUGUAAGGAUAUGCUAAAAAACGCAAAAAAAGCGAAUAGCAGAAGGUACAAAAA [66%, Wbt, 29]”: the “apparent KD of MS2 coat protein” value came out at 0.0194 µM in data set [1] and 0.0359 µM in data set [2].

Regarding “AACAGGUCAGGAUAUGUGCAACAGAAAAGAGCAGAAUAAGCACAGAAGGGACAUGAGGAUCACCCAUGUUAACA [May 27]”, the “apparent KD of MS2 coat protein” value in data set [1] came out at 0.0246 µM; in data set [2], 0.0322 µM.

As for “AAAAAGAGAGGAUAUACAUGAGGAUCACCCAUGUGACACAAAAUAAAUAAAAUAAAGUGUAGAAGGCUCAAAAA [65%, Moding Exclusion3-cac2, 20]”, the figures for the “apparent KD of MS2 coat protein” value in data set [1] and in data set [2] were 0.0238 µM and 0.0782 µM, respectively.

For the sequence “AAGAAGUGAGGAUAUGUCUGUGCGAAAAAAAAAAAGUGCAGACAGAAGGCACAUGAGGAUCACCCAUGUGAAAA [Florian 65% 4]”, the “apparent KD of MS2 coat protein” value stood at 0.0219 µM in data set [1] and 0.0267 µM in data set [2].

“AAGAAGUGAGGAUAUACAUGAGGAUCACCCAUGUAAAAGAAAGAAGGGAAAGAGAAAAGUAGAAGGCGCAAGAA [Neferibre Psamtik II]”: the entries for the “apparent KD of MS2 coat protein” value in data set [1] and in data set [2] were 0.0389 µM and 0.0421 µM, respectively.

On to “AAAAAGCGAGGAUAUACGAGUCAAAGAAAAGACAAAAGGGAACAUGAGGAUCACCCAUGUAGAAGGCGCAAAAA [Fiskers exclusion D2 62% 2]”, for which the “apparent KD of MS2 coat protein” value in data set [1] stood at 0.03 µM; in data set [2] it was 0.1 µM.

On to “UUUAUGUGAGGAUAUGUACAGAAAAAAAAGGGUGUAACUGUACAGAAGGCACAUGAGGAUCACCCAUGUGCAUU [EX4 382: S S Pseudoknot 7]”, for which the results for the “apparent KD of MS2 coat protein” value in data set [1] and in data set [2] were 0.0279 µM and 0.0218 µM, respectively.

Consider “ACUAAACGAGGAUAUACUGACAAACCUCAAACAUACAUCAAACAUGAGGAUCACCCAUGUAGAAGGCGUAAACU [JR_Exc002_Sub401]”, for which the “apparent KD of MS2 coat protein” value in data set [1] was 0.0376 µM; in data set [2], 0.0196 µM.

“AAGAAUCGAGGAUAUACAUGAGGAUCACCCAUGUAAAAGAAAGAAAAGGGAAAGAAAAGUAGAAGGCGAAAGAA [Userkhaure Setnakht]”: the “apparent KD of MS2 coat protein” value was determined as 0.0328 µM in data set [1] and 0.0353 µM in data set [2].

“AUCUUGUCAGGAUAUCGUAUAAUAUGGAAAACAUAGAGAUACGAGAAGGGACAUGAGGAUCACCCAUGUAAAAC [May 97]”: the “apparent KD of MS2 coat protein” value in data set [1] was 0.0417 µM; in data set [2] it was 0.04 µM.

On to “AGUAGUACAGGAUAUACAUGAGGAUCACCCAUGUGAAAAUUAAGUGGCGUACCACAAAGUAGAAGGGUACUACA [Mat - Exclusion 3 - JL mod - D36]”, for which the results for the “apparent KD of MS2 coat protein” value in data set [1] and in data set [2] were 0.031 µM and 0.148 µM, respectively.

With “AAAAAGAUAGGAUAUACGAACAUGUCGAAAGACGUGAAGGGACAUGAGGAUCACCCAUGUAGAAGGGUUAAAAA [Mat - Exclusion 2 - JL mod - D88]”, the “apparent KD of MS2 coat protein” value in data set [1] came to 0.149 µM; in data set [2] it was 0.05 µM.

Turning to “AAGAAGUGAGGAUAUGGAAAAGAAAAGAAAAGAAAAGAAAACCAGAAGGCACAUGAGGAUCACCCAUGUAAGAA [Artabanus the Hyrcanian]”, the “apparent KD of MS2 coat protein” value in data set [1] was found to be 0.0295 µM; in data set [2] it was 0.028 µM.
